Target: 人重链铁蛋白(HFn) (人铁蛋白H亚基, wild type, recombinant from E. coli) (human)
Assay: ELISA, antigen coated at 1 μg/ml, purified antibody titrated, HRP goat anti-mouse IgG, OD450

人重链铁蛋白(HFn) (人铁蛋白H亚基, wild type, recombinant from E. coli) (human), sequence (chain, as listed by the source): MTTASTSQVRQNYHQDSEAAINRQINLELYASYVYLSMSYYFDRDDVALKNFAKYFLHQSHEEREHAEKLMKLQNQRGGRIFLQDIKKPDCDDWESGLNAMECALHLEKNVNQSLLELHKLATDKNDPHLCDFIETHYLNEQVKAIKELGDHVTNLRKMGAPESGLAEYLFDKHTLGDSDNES

B1: 单克隆抗体3A (抗人重链铁蛋白的抗体3A, secreted by hybridoma 3A7 1B6, CGMCC NO:21906) (antibody, IgG2b, V domains shown)
VH: EVQLQQPGAELVKPGTSVKLSCKASGYIFTSYWMHWVKQRPGQGLEWIGEINPSNARTNYNEKFKSKATLTVDKSSSTTYMQLSSLTSEDSAVYYCARSSYGKNAMDYWGQGTSVTVSS
VL: DIQMTQTPSSLSASLGDRVTISCRTSQDISNYLNWYQQKPDGTVKLLIYYTSRLHSGVPSRFSGSGSGTAYSLTISNLEQEDIATYLCQEGNTLPRTFGGGTKLEIKR
notes: also called 3A单抗; 3A抗体
EC50: 3.68 ng/mL
